Measured values taken from a protein production outcome set (Wang et al. 2014).

Assay: label from the status in PepcDB records

Sequence | protein production
MTTKLDQLTSWLKERKITEVECLISDLTGIARGKISPTNKFIAEKGMRLPESVLLQTVTGDYVEDDIYYDLLDPADIDMVCRPDENAVFLVPWAIEPTAMVIHDTFDKLGNPIELSPRNILKRVLKMYADKGWRPIVAPEMEFYLTKRSDDPDYPLQAPVGRSGRQETGRQSFSIDAANEFDPLFEDMYDWCEAQGLDLDTLIHEEGTAQMEINFRHGDALDLADQILVFKRTMREAALKHNVAATFMAKPMTGEPGSAMHLHQSIVDVKTGKNIFSNADGTMSELFLHHIGGLQKFIPEVLPLFAPNVNSFRRFLPDTSAPVNVEWGEENRTVGLRVPDSSPENRRVENRLAGADANPYLALAASLLCGYIGMVEGIKPSAQVKGRGYERRNLRLPLTIEAALERMENCKPLEQYLGSKFISGYVAVKRAEHENFKRVISSWEREFLLLS | failed
MTTLKLFDIEHAWGLPRKVSPRFGARLILRGLHLDYLHDRASFVGEFPPAIKQQFVEAFPAMVKQLERLVATGEIDTTEQHCVSIEHAGFTCEADTLGSHGYLYIAIYQTKAKPLTTSNLTITRLEHHHHHH | failed
MTTLTRQDLNFGQVVADVLSEFLEVAVHLILYVREVYPVGIFQKRKKYNVPVQMSCHPELNQYIQDTLHCVKPLLEKNDVEKVVVVILDKEHRPVEKFVFEITQPPLLSINSDSLLSHVEQLLRAFILKISVCDAVLDHNPPGCTFTVLVHTREAATRNMEKIQVIKDFPWILADEQDVHMHDPRLIPLKTMTSDILKMQLYVEERAHKNS | not failed
MTTMQQRYDAVKDAMAQIGRLAAQLDGEALREAIGPVLVALGERDELFPRDEFPIRAGKPGGLYQLWRGESGDLALYASAGKTGKKQPPHDHTTWAVIAGVYGEEHNVFFERTDDGSRAGFGTLRQIDALTVVQGNAARLSGEVFHTIEVVSEEDSLHLHLHLYGRALDTLSGRINFATEEGGAYTRFMAVPETYAPWIAPRDLYEMLTDGGELAILDVRENGVYTQGHLFHAASMPLSVFELRVDDGLPSPHVRIVVIDDADGLAEQAVRLLHQRGYHNVAVLQGGQPGWNAAGLPVYTGVFVPSKAFGEVAEHVYGTPSISAVELDALRRSEEVLVLDSRTEQEFNLMSVPGAYSCPGAELVARALDHAGPIVVNCAGRTRSIIGAQSLRNAGKTDVRALENGTMGQHLAGLPLERGKSASYLDRPVAAGAAQAAQAWALGMSIATLDAGELHDMLSNPYRTTYLFDARDPSCSSRATLPRAVAAPGGQLVQQTDYYAPVRNARIVVFDTDGVQAPMTAGWLHQMGWEVYLHRPEATALVAPPRVEYDDERGVPVEAVAADAVIIDVGDSRTYRAGHLAGAAWAPRSRLPALLAQRKPAGPLLFTCADGRVSRLAAADAAAQGYQAAYLKGGTAALGADRLRGDAPQFLTEAIDVWYRPYDRETGIEEAMHQYLSWETGLLDKVRSDPTVAFRI | failed
MTTMVNVDTLPEYEKSQIKRALELGTVMTVFNARKSTPERRTVQMIMETRQVAWSKTADKIEGFLDIMEIKEIRPGKNSKDFERAKAVRHKAECCFTILYGTQFVLSTLSLATDSKEDAVKWLSGLKILHQEAMSASTPTMIESWLRKQIYSVDQTRRNSISLRELKTILPLVNFKVSGIKFLKDKLVEIGAQKDELSFEQFHLFYKKLMFDQQKSILDEFKKDSSVFILGNTDRPDASAVYLQDFQRFLLHEQQELWAQDLNKVRERMTKFIDDTMRETAEPFLFVDEFLTYLFSRENSIWDEKYDAVDMQDMNNPLSHYWISSSHNTYLTGDQLRSESSTEAYIRCLRAGCRCIELDCWDGPDGKPIIYHGWTRTTKIKFDDVVQAIRDHAFVTSSFPVILSIEEHCSVEQQRHMAKVFKEVLGDMLLTKPTEASADQLPSPSQLREKIIIKHKKLGPKGDVDVNVEDKKDEHKPQGELYMWDSIDQKWTRHYCAIADAKLSFGDDIEQAVEEEPVQDTPPTELHFGEKWFHKKVESRTSAEKLLQEYCAETGAKDGTFLVRESETFPNDYTLSFWRSGRVQHCRIRSTMENGVMKYYLTDNLTFNSIYALIQHYREAHLRCAEFELRLTDPVPNPNPHESKPWYYDSLSRGEAEDMLMRIPRDGAFLIRKREGTNSYAITFRARGKVKHCRINRDGRHFVLGTSAYFESLVELVSYYEKHALYRKMRLRYPVTPELLERYNMERDINSLYDVSRMYVDPSEINPSMPQRTVKALYDYKAKRSDELTFCRGALIHNVSKEPGGWWKGDYGTRIQQYFPSNYVEDISAGDAEEMEKQIIEDNPLGSLCKGILDLNTYNVVKAPQGKNQKAFVFILEPKKQGDPPVEFATDRVEELFEWFQSIREITWKMDTKENNMKYWERNQSIAIELSDLVVYCKPTSKTKDHLENPDFREIRSFVETKADSIVRQKPVDLLRYNQKGLTRVYPKGQRVDSSNYDPFRLWLCGSQMVALNFQTPDKYMQMNHALFSLNGRTGYVLQPESMRSEKYDPMPLESQRKILMTLTVKVLGARHLPKLGRSIACPFVEVEICGAEYDSNKFKTTVVNDNGLSPVWAPTQEKVTFEIYDPNLAFLRFVVYEEDMFSDPNFLAHATYPIKGIKSGFRSVPLKNGYSEDIELASLLVFCEMRPVLESEEELYSSCRQLRRRQEELNNQLFLYDTHQNLRGANRDALVKEFNVNENQLQLYQEKCNRRLREKRVSNSRFYS | not failed
MTTNTIMEQEARTAPQKIAEQLLANDAITESLGSVLREFKPKFVMIVGRGSSDHAGVFAKYLFEIEASIPTFAAAPSVASVYGKTLKLAGGLVIVISQSGRSPDILAQARMAKNAGAFCVALVNDETAPIKDIVDVVIPLRAGEEKAVAATKSYLATLSALLQVAAKWTQNESLVEAVNSLPQALQAAVDAEPQLRAGSLTDVKNLVVLGRGFGYAVSKEIALKLKEVCAIHAEAFSSAEFLHGPVTLVEKKLSILDVCIRDESYGSHVEQIANVKQRGANLIHLHQTSADIHPRIAPLALLQRFYIDVAAVAIALGINPDKPAGLKKVTQTL | not failed
MTTPIRVVVWNEFRHEKKDEQVRAIYPEGMHTVIASYLAEAGFDAATAVLDEPEHGLTDEVLDRCDVLVWWGHIAHDEVKDEVVERVHRRVLEGMGLIVLHSGHFSKIFKKLMGTTCNLKWREADEKERLWVVAPGHPIVEGIGPYIELEQEEMYGEFFDIPEPDETIFISWFEGGEVFRSGCTFTRGKGKIFYFRPGHETYPTYHHPDVLKVIANAVRWAAPVNRGEIVFGNVKPLEPIKAKQGGVTQ | not failed
MTTPVDAPKWPRQIPYIIASEACERFSFYGMRNILTPFLMTALLLSIPEELRGAVAKDVFHSFVIGVYFFPLLGGWIADRFFGKYNTILWLSLIYCVGHAFLAIFEHSVQGFYTGLFLIALGSGGIKPLVSSFMGDQFDQSNKSLAQKAFDMFYFTINFGSFFASLSMPLLLKNFGAAVAFGIPGVLMFVATVFFWLGRKRYIHMPPEPKDPHGFLPVIRSALLTKVEGKGNIGLVLALIGGVSAAYALVNIPTLGIVAGLCCAMVLVMGFVGAGASLQLERARKSHPDAAVDGVRSVLRILVLFALVTPFWSLFDQKASTWILQANDMVKPQWFEPAMMQALNPLLVMLLIPFNNFVLYPAIERMGVKLTALRKMGAGIAITGLSWIVVGTIQLMMDGGSALSIFWQILPYALLTFGEVLVSATGLEFAYSQAPKAMKGTIMSFWTLSVTVGNLWVLLANVSVKSPTVTEQIVQTGMSVTAFQMFFFAGFAILAAIVFALYARSYQMQDHYRQAT | failed
MTTRRLALFDLDHTLLPLDSDYQWADFLARTGRAGDPAEARRRNDDLMERYNRGELTAEQAAEFMLGLLAAHSPVELAAWHEEFMRDVIRPSLTVQAVDVVRGHLAAGDLCALVTATNSFVTAPIARAFGVQHLIATDPEYRDGRYTGRIEGTPSFREGKVVRVNQWLAGMGLALGDFAESYFYSDSVNDVPLLEAVTRPIAANPSPGLREIAQARGWQVIDLFDHLEDAKS | not failed
MTTTFEFLQPRIHGFATCCSSNSLLYSKASRFFNDRCRVYRQNPNRFVSNSITLPLQKKQVTVLRNHERFNLWDGFSRKKSRLVVNCQEDDQNESSSEEEESSQSTPAKSERKREKKEDKVWWSKGKKWQWQPIIQAQGIGVLLLQLSVVMFVMRLLRPGIPLPGSEPRIQTTFVSVPYSEFLSKVNSNQVQKVEVDGVQVLFKLRDDGKWQESETSRLSQSSESLLRTVAPTKRVVYSTTRPGDIKTPYEKMLGNNVEFGSPEKRSGGFFNSALIALFYIAVLAGLIRFPVSFSTSSTGQLRTRKAGGPDGGKVSGGGETITFADVAGVDEAKEELEEIVEFLRNPEKYVRLGARPPRGVLLVGLPGTGKTLLAKAVAGEAEVPFISCSASEFVELYVGMGASRVRDLFARAKKEAPSIIFIDEIDAVAKSRDGKFRMGSNDEREQTLNQLLTEMDGFDSNSAVIVLGATNRADVLDPALRRPGRFDRVVTVETPDKIGRESILRVHVSKKELPLGDDVNLGSIASMTTGFTGADLANLVNEAALLAGRKNKTNVEKIDFIQAVERSIAGIEKKSARLKGNEKAVVARHEAGHAVVGTAVANLLTGQPRVEKLSILPRTGGALGFTYIPPTSEDRYLLFIDELLGRLVTLLGGRAAEEVVYSGRISTGAFDDIRRATDMAYKAVAEYGLNQKIGPVSVATLSGGGIDDSGGSPWGRDQGKLVDLVQKEVTILLQSALDVALSVVRANPDVLEGLGAQLEEKEKVEGEELQKWLSMVVAPEELAVFVEGKQELLLPAQASSS | failed
MTTTIHMLTIIILCGIVTWLTRIIPFVMISKVHLSERVVKWLSFIPITLFTALIIDGVLVQQEGVMGYTINMPFLITMIPTIVVAIVSRSLTITILSGIIIMALLRWVF | failed
MTTTMSTLPVVLVDEILARVPITSLRSLRSTCKKWEASSKTNLVGGKATARKSSHVGFILIGDKICSMKLDLNGGDDFVDTSVNQVSAFDGFAISQLFHCDGLLFCISNNHYSNYTLMVCNMYLGETRLIQNRSLFESYQNFCSYAFGYDSSKNRNHKILRNNSVSGGYEIYSLKSDSWKDLNVDLEKSIHLWRLGSVSLKGNAYFRVIKVIEEGVWEYNLLCFDFTRESFGKLLSLPFESLGDEGEGIMVISCVRDDHLAVLYQRDTLGIWISTEIEPNKVSWREFLQVDLATLDGFPDVFIAGRFIVDEEKQVVVVFGQETELDLNHGNAFIFGRDGYFTSFTVGDAPPEDFTSYVPSLVSLQIDKTGKRKARDD | failed
MTTTTAQPAASLAAALEHAERLLEVDPVMAAEQARAILEVVPRHADTTRVLAAAQRLSGDAEGGLATVAPLAMALPNLPLAQLELALCLERLGRTAEAARAFDRVSALEPRLSEAWRGLSESLELLGDRQGAERALARQLRASTRDPLLVEAATALAEDRLGEAERLLRDRLKADAGDVAAIRMLAETGARLGRYADAEALLTRCMELAPNFAAARHNLATMLYRQNKNLEALAQIEQLVAKDARHPGYANLYAAILARLGEYDRAIAVYGQVLADYPNQPKGWMSYGHALKTVGRQADSVAAYRKALDLAPTLGEVWWSLANLKTVRFTPEDLAAMSQALEAEGLSEDDRLHLHYALGKAQEDAQDWDASFQHYAAGAAIRREQLDYDADENTADTVRTKAVFSPAFIAARGGQGCAAPDPIFVVGLPRSGSTLVEQILASHSLVEGTMELPDLIVMARRLGGKTAKRAESTYPESLAELSPEDLRALGEEFLERTRIQRKTDKPFFIDKMPNNFAHTGLIHLILPNAKIIDARRHPLGCCFSGFKQHFARGQAFSYDLTDIGRYYADYVDLMAHFDAVLPGRVHRVIYERMIADPEAEIRALLDHCGLPFEEACLSPHENDRAVRTASSEQVRRPIFKDAVEHWQKFESHLGPLKQALGPVLTAYPDAPVI | failed
MTTVAVSSLPQGTSVTLRNVTKSFGTTKVLNGLDLNIHSGELVALLGPSGCGKSTLLRIIAGFEAADQGSVLLDDVDVSGVPTNRRDIGLVFQAYSLFPHLNAVENVMYGLSIRHVAKTEAKSSAVELLASVGLADYADRYPAQLSGGQQQRVALARALATKPRVLLLDEPLSALDAKVRVQLRDEIRALQLETHTTTIMVTHDQEEALVMADRIAVMYNGRFEQVGTPAEIYHSPATAFVAGFVGSMNVLPGVLSTDGTAQTIGCRVPVHAAAGAATLNPGPVDVFVRPEELRLQIANDDLNDHDAVLGTVTSTVLRGAFTSVMVAMGDGLHLRVDLPSKDAQLFTPGCSVMVRIADEPMLCTARRVECVA | failed
